Experimental data reported in patent US12630600B2 (MEDIMMUNE LIMITED, priority 2022, dated 2026).
Starred links: 1 amine or outer side, 2 acyl side, 3 side chain; linkers in the order of their positions; H or OH if unused. Non-standard residues stand in square brackets, D forms with d. Groups on a side chain read outwards from the residue. No end group written: not given here. *: point of attachment. C20 diacid = O=C(O)CCCCCCCCCCCCCCCCCCC(=O)*; C18 diacid = O=C(O)CCCCCCCCCCCCCCCCC(=O)*; γGlu = O=C(O)[C@H](CCC(=O)[*:2])N[*:1]; αMeF = C[C@](N)(Cc1ccccc1)C(=O)O; PEG4 = NCCOCCOCCOCCOCCC(=O)O; AEEA = NCCOCCOCC(=O)O; Aib = CC(C)(N)C(=O)O

B1: Peptide 268 (peptide)
peptide: H[Aib]HGS[αMeF]TSDVSK[αMeF]LDSRAAK([AEEA-γGlu-C20 diacid])D[αMeF]VQ[Aib]IANT-NH2
modifications: N-terminus assumed
SMILES: CC[C@H](C)[C@H](NC(=O)C(C)(C)NC(=O)[C@H](CCC(N)=O)NC(=O)[C@@H](NC(=O)[C@](C)(Cc1ccccc1)NC(=O)[C@H](CC(=O)O)NC(=O)[C@H](CCCCNC(=O)COCCOCCNC(=O)CC[C@H](NC(=O)CCCCCCCCCCCCCCCCCCC(=O)O)C(=O)O)NC(=O)[C@H](C)NC(=O)[C@H](C)NC(=O)[C@H](CCCNC(=N)N)NC(=O)[C@H](CO)NC(=O)[C@H](CC(=O)O)NC(=O)[C@H](CC(C)C)NC(=O)[C@](C)(Cc1ccccc1)NC(=O)[C@H](CCCCN)NC(=O)[C@H](CO)NC(=O)[C@@H](NC(=O)[C@H](CC(=O)O)NC(=O)[C@H](CO)NC(=O)[C@@H](NC(=O)[C@](C)(Cc1ccccc1)NC(=O)[C@H](CO)NC(=O)CNC(=O)[C@H](Cc1c[nH]cn1)NC(=O)C(C)(C)NC(=O)[C@@H](N)Cc1c[nH]cn1)[C@@H](C)O)C(C)C)C(C)C)C(=O)N[C@@H](C)C(=O)N[C@@H](CC(N)=O)C(=O)N[C@H](C(N)=O)[C@@H](C)O
B2: Peptide 269 (peptide)
peptide: H[Aib]HGS[αMeF]TSDVSK[αMeF]LDSRAAK([PEG4-γGlu-γGlu-C20 diacid])D[αMeF]VQ[Aib]IANT-NH2
modifications: N-terminus assumed
SMILES: CC[C@H](C)[C@H](NC(=O)C(C)(C)NC(=O)[C@H](CCC(N)=O)NC(=O)[C@@H](NC(=O)[C@](C)(Cc1ccccc1)NC(=O)[C@H](CC(=O)O)NC(=O)[C@H](CCCCNC(=O)CCOCCOCCOCCOCCNC(=O)CC[C@H](NC(=O)CC[C@H](NC(=O)CCCCCCCCCCCCCCCCCCC(=O)O)C(=O)O)C(=O)O)NC(=O)[C@H](C)NC(=O)[C@H](C)NC(=O)[C@H](CCCNC(=N)N)NC(=O)[C@H](CO)NC(=O)[C@H](CC(=O)O)NC(=O)[C@H](CC(C)C)NC(=O)[C@](C)(Cc1ccccc1)NC(=O)[C@H](CCCCN)NC(=O)[C@H](CO)NC(=O)[C@@H](NC(=O)[C@H](CC(=O)O)NC(=O)[C@H](CO)NC(=O)[C@@H](NC(=O)[C@](C)(Cc1ccccc1)NC(=O)[C@H](CO)NC(=O)CNC(=O)[C@H](Cc1c[nH]cn1)NC(=O)C(C)(C)NC(=O)[C@@H](N)Cc1c[nH]cn1)[C@@H](C)O)C(C)C)C(C)C)C(=O)N[C@@H](C)C(=O)N[C@@H](CC(N)=O)C(=O)N[C@H](C(N)=O)[C@@H](C)O
B3: Peptide 271 (peptide)
peptide: H[Aib]HGS[αMeF]TSDVSK[αMeF]LDSRAAK([γGlu-C18 diacid])D[αMeF]VQ[Aib]IANT-NH2
modifications: N-terminus assumed
SMILES: CC[C@H](C)[C@H](NC(=O)C(C)(C)NC(=O)[C@H](CCC(N)=O)NC(=O)[C@@H](NC(=O)[C@](C)(Cc1ccccc1)NC(=O)[C@H](CC(=O)O)NC(=O)[C@H](CCCCNC(=O)CC[C@H](NC(=O)CCCCCCCCCCCCCCCCC(=O)O)C(=O)O)NC(=O)[C@H](C)NC(=O)[C@H](C)NC(=O)[C@H](CCCNC(=N)N)NC(=O)[C@H](CO)NC(=O)[C@H](CC(=O)O)NC(=O)[C@H](CC(C)C)NC(=O)[C@](C)(Cc1ccccc1)NC(=O)[C@H](CCCCN)NC(=O)[C@H](CO)NC(=O)[C@@H](NC(=O)[C@H](CC(=O)O)NC(=O)[C@H](CO)NC(=O)[C@@H](NC(=O)[C@](C)(Cc1ccccc1)NC(=O)[C@H](CO)NC(=O)CNC(=O)[C@H](Cc1c[nH]cn1)NC(=O)C(C)(C)NC(=O)[C@@H](N)Cc1c[nH]cn1)[C@@H](C)O)C(C)C)C(C)C)C(=O)N[C@@H](C)C(=O)N[C@@H](CC(N)=O)C(=O)N[C@H](C(N)=O)[C@@H](C)O

These binders were tested against human GLP-1 receptor (human, UniProt P43220) (assay: cell-based or functional assay).

| hGLP-1R EC50 (pM) | Binder |
| --- | --- |
| 24.4 | H[Aib]HGS[αMeF]TSDVSK[αMeF]LDSRAAK([γGlu-γGlu-C18 diacid])D[αMeF]VQ[Aib]IANT-NH2 [Peptide 270] |
| 347 | H[Aib]HGS[αMeF]TSDVSK[αMeF]LDSRAAK([AEEA-AEEA-γGlu-γGlu-C20 diacid])DFVQWIANT-NH2 (not fully specified) [Peptide 290] |
| 301 | HSHGS[αMeF]TSDVSK[αMeF]LDSRAAK([AEEA-AEEA-γGlu-C18 diacid])D[αMeF]VQ[Aib]IANT-NH2 [Peptide 285] |
| 27.5 | H[Aib]HGS[αMeF]TSDVSK[αMeF]LDSRAAK([AEEA-AEEA-γGlu-C18 diacid])DFVQ[Aib]IANT-NH2 [Peptide 287] |
| 155 | H[Aib]HGS[αMeF]TSDVSK[αMeF]LDSRAAK([AEEA-AEEA-γGlu-γGlu-C20 diacid])D[αMeF]VQ[Aib]IANT-NH2 [Peptide 281] |
| 15.7 | H[Aib]HGS[αMeF]TSDVSK[αMeF]LDSRAAK([AEEA-AEEA-C18 diacid])D[αMeF]VQ[Aib]IANT-NH2 [Peptide 272] |
| 39.5 | B1 |
| 52 | B2 |
| 111 | H[Aib]HGS[αMeF]TSDVSK[αMeF]LDSRAAK([γGlu-γGlu-C20 diacid])D[αMeF]VQ[Aib]IANT-NH2 [Peptide 275] |
| 143 | H[Aib]HGS[αMeF]TSDVSK[αMeF]LDSRAAK([γGlu-C20 diacid])D[αMeF]VQ[Aib]IANT-NH2 [Peptide 276] |
| 28.7 | H[Aib]HGS[αMeF]TSDVSKYLDSRAAKDFVQWIANT-NH2 (not fully specified (residue 20)) [Peptide 292] |
| 86.5 | H[Aib]HGS[αMeF]TSDVSK[αMeF]LDSRAAK([AEEA-γGlu-γGlu-C20 diacid])D[αMeF]VQ[Aib]IANT-NH2 [Peptide 279] |
| 43.4 | H[Aib]HGS[αMeF]TSDVSK[αMeF]LDSRAAK([AEEA-AEEA-γGlu-C18 diacid])D[αMeF]VQ[Aib]IANT-NH2 [Peptide 284] |
| 31.6 | H[Aib]HGS[αMeF]TSDVSKYLDSRAAK([AEEA-AEEA-γGlu-C18 diacid])D[αMeF]VQ[Aib]IANT-NH2 (not fully specified; also: X13: αMePhe or Y (table)) [Peptide 286] |
| 312 | H[Aib]HGS[αMeF]TSDVSK[Aib]LDSRAAK([AEEA-AEEA-γGlu-γGlu-C20 diacid])D[αMeF]VQ[Aib]IANT-NH2 [Peptide 295] |
| 49.5 | H[Aib]HGS[αMeF]TSDVSK[αMeF]LDSRAAK([AEEA-AEEA-C20 diacid])D[αMeF]VQ[Aib]IANT-NH2 [Peptide 277] |
| 64.1 | H[Aib]HGS[αMeF]TSDVSK[Aib]LDSRAAK([AEEA-AEEA-γGlu-C18 diacid])D[αMeF]VQ[Aib]IANT-NH2 [Peptide 296] |
| 78.9 | H[Aib]HGS[αMeF]TSDVSK[αMeF]LDSRAAK([AEEA-C20 diacid])D[αMeF]VQ[Aib]IANT-NH2 [Peptide 278] |
| 22.1 | H[Aib]HGS[αMeF]TSDVSK[αMeF]LDSRAAK([AEEA-C18 diacid])D[αMeF]VQ[Aib]IANT-NH2 [Peptide 273] |
| 54.6 | B3 |
| 42.7 | H[Aib]HGS[αMeF]TSDVSK[αMeF]LDSRAAK([AEEA-AEEA-γGlu-C18 diacid])D[αMeF]VQWIANT-NH2 [Peptide 288] |
| 118 | H[Aib]HGS[αMeF]TSDVSK[αMeF]LDSRAAKD[αMeF]VQWIANT-NH2 (not fully specified (residue 20); also: X13: αMePhe or Y (table)) [Peptide 289] |
| 1230 | H[Aib]HGS[αMeF]TSDVSK[αMeF]LDSRAAK([AEEA-AEEA-γGlu-γGlu-C20 diacid])D[αMeF]VQ[Aib]IANT-NH2 (not fully specified) [Peptide 282] |
| 27.1 | H[Aib]HGS[αMeF]TSDVSK[αMeF]LDSRAAK([AEEA-γGlu-γGlu-C18 diacid])D[αMeF]VQ[Aib]IANT-NH2 [Peptide 274] |
| 78.3 | H[Aib]HGS[αMeF]TSDVSK[αMeF]LDSRAAK([AEEA-AEEA-γGlu-C20 diacid])D[αMeF]VQ[Aib]IANT-NH2 [Peptide 280] |

What follows are binders tested against human glucagon receptor (human, UniProt P47871) (assay: cell-based or functional assay).

| hGluc-R EC50 (pM) | Binder |
| --- | --- |
| 31.3 | H[Aib]HGS[αMeF]TSDVSK[αMeF]LDSRAAK([γGlu-γGlu-C18 diacid])D[αMeF]VQ[Aib]IANT-NH2 [Peptide 270] |
| 260 | H[Aib]HGS[αMeF]TSDVSK[αMeF]LDSRAAK([AEEA-AEEA-γGlu-γGlu-C20 diacid])DFVQWIANT-NH2 (not fully specified) [Peptide 290] |
| 87 | HSHGS[αMeF]TSDVSK[αMeF]LDSRAAK([AEEA-AEEA-γGlu-C18 diacid])D[αMeF]VQ[Aib]IANT-NH2 [Peptide 285] |
| 26.5 | H[Aib]HGS[αMeF]TSDVSK[αMeF]LDSRAAK([AEEA-AEEA-γGlu-C18 diacid])DFVQ[Aib]IANT-NH2 [Peptide 287] |
| 1040 | H[Aib]HGS[αMeF]TSDVSK[αMeF]LDSRAAK([AEEA-AEEA-γGlu-γGlu-C20 diacid])D[αMeF]VQ[Aib]IANT-NH2 [Peptide 281] |
| 14.3 | H[Aib]HGS[αMeF]TSDVSK[αMeF]LDSRAAK([AEEA-AEEA-C18 diacid])D[αMeF]VQ[Aib]IANT-NH2 [Peptide 272] |
| 29.3 | B1 |
| 271 | B2 |
| 175 | H[Aib]HGS[αMeF]TSDVSK[αMeF]LDSRAAK([γGlu-γGlu-C20 diacid])D[αMeF]VQ[Aib]IANT-NH2 [Peptide 275] |
| 91.4 | H[Aib]HGS[αMeF]TSDVSK[αMeF]LDSRAAK([γGlu-C20 diacid])D[αMeF]VQ[Aib]IANT-NH2 [Peptide 276] |
| 20.4 | H[Aib]HGS[αMeF]TSDVSKYLDSRAAKDFVQWIANT-NH2 (not fully specified (residue 20)) [Peptide 292] |
| 150 | H[Aib]HGS[αMeF]TSDVSK[αMeF]LDSRAAK([AEEA-γGlu-γGlu-C20 diacid])D[αMeF]VQ[Aib]IANT-NH2 [Peptide 279] |
| 119 | H[Aib]HGS[αMeF]TSDVSK[αMeF]LDSRAAK([AEEA-AEEA-γGlu-C18 diacid])D[αMeF]VQ[Aib]IANT-NH2 [Peptide 284] |
| 53 | H[Aib]HGS[αMeF]TSDVSKYLDSRAAK([AEEA-AEEA-γGlu-C18 diacid])D[αMeF]VQ[Aib]IANT-NH2 (not fully specified; also: X13: αMePhe or Y (table)) [Peptide 286] |
| 17100 | H[Aib]HGS[αMeF]TSDVSK[Aib]LDSRAAK([AEEA-AEEA-γGlu-γGlu-C20 diacid])D[αMeF]VQ[Aib]IANT-NH2 [Peptide 295] |
| 57.3 | H[Aib]HGS[αMeF]TSDVSK[αMeF]LDSRAAK([AEEA-AEEA-C20 diacid])D[αMeF]VQ[Aib]IANT-NH2 [Peptide 277] |
| 3250 | H[Aib]HGS[αMeF]TSDVSK[Aib]LDSRAAK([AEEA-AEEA-γGlu-C18 diacid])D[αMeF]VQ[Aib]IANT-NH2 [Peptide 296] |
| 83.5 | H[Aib]HGS[αMeF]TSDVSK[αMeF]LDSRAAK([AEEA-C20 diacid])D[αMeF]VQ[Aib]IANT-NH2 [Peptide 278] |
| 23.3 | H[Aib]HGS[αMeF]TSDVSK[αMeF]LDSRAAK([AEEA-C18 diacid])D[αMeF]VQ[Aib]IANT-NH2 [Peptide 273] |
| 28 | B3 |
| 26.9 | H[Aib]HGS[αMeF]TSDVSK[αMeF]LDSRAAK([AEEA-AEEA-γGlu-C18 diacid])D[αMeF]VQWIANT-NH2 [Peptide 288] |
| 148 | H[Aib]HGS[αMeF]TSDVSK[αMeF]LDSRAAKD[αMeF]VQWIANT-NH2 (not fully specified (residue 20); also: X13: αMePhe or Y (table)) [Peptide 289] |
| 1140 | H[Aib]HGS[αMeF]TSDVSK[αMeF]LDSRAAK([AEEA-AEEA-γGlu-γGlu-C20 diacid])D[αMeF]VQ[Aib]IANT-NH2 (not fully specified) [Peptide 282] |
| 31.3 | H[Aib]HGS[αMeF]TSDVSK[αMeF]LDSRAAK([AEEA-γGlu-γGlu-C18 diacid])D[αMeF]VQ[Aib]IANT-NH2 [Peptide 274] |
| 155 | H[Aib]HGS[αMeF]TSDVSK[αMeF]LDSRAAK([AEEA-AEEA-γGlu-C20 diacid])D[αMeF]VQ[Aib]IANT-NH2 [Peptide 280] |
